Paper PMC7749410
Blank lines part the entries; values can stand above or below the substance they belong to.

Experiments:
[1] = biological target: cc-del0 (cc-C99 18-99) (Saccharomyces cerevisiae | human); assay: native gel or EMSA
[2] = biological target: cc-del0 G29C (Saccharomyces cerevisiae | human); assay: cross-linking
[3] = biological target: cc-del1 (cc-C99 19-99) (Saccharomyces cerevisiae | human); assay: native gel or EMSA
[4] = biological target: cc-del2 (cc-C99 20-99) (Saccharomyces cerevisiae | human); assay: native gel or EMSA
[5] = biological target: cc-del2 G29C (Saccharomyces cerevisiae | human); assay: cross-linking
[6] = biological target: cc-del3 (cc-C99 21-99) (Saccharomyces cerevisiae | human); assay: native gel or EMSA
[7] = biological target: cc-del3 G29C (Saccharomyces cerevisiae | human); assay: cross-linking
[8] = biological target: cc-del4 (cc-C99 22-99) (Saccharomyces cerevisiae | human); assay: native gel or EMSA
[9] = biological target: cc-del4 G37C (Saccharomyces cerevisiae | human); assay: cross-linking
[10] = biological target: cc-del5 (cc-C99 23-99) (Saccharomyces cerevisiae | human); assay: native gel or EMSA
[11] = biological target: cc-del6 (cc-C99 24-99) (Saccharomyces cerevisiae | human); assay: native gel or EMSA
[12] = biological target: cc-del6 G29C (Saccharomyces cerevisiae | human); assay: cross-linking
[13] = biological target: cc-del7 (cc-C99 25-99) (Saccharomyces cerevisiae | human); assay: native gel or EMSA
[14] = biological target: cc-del7 G29C (Saccharomyces cerevisiae | human); assay: cross-linking
[15] = biological target: cc-del7 G37C (Saccharomyces cerevisiae | human); assay: cross-linking
[16] = biological target: cc-del8 (cc-C99 26-99) (Saccharomyces cerevisiae | human); assay: native gel or EMSA
[17] = biological target: cc-del9 (cc-C99 27-99) (Saccharomyces cerevisiae | human); assay: native gel or EMSA
[18] = biological target: cc-del9 G29C (Saccharomyces cerevisiae | human); assay: cross-linking

stoichiometry N [1]: 2
Substance: cc-del0 (cc-C99 18-99)

stoichiometry N [2]: 2
Substance: cc-del0 G29C

stoichiometry N [3]: 2
Substance: cc-del1 (cc-C99 19-99)

stoichiometry N [4]: 2
Substance: cc-del2 (cc-C99 20-99)

stoichiometry N [5]: 2
Substance: cc-del2 G29C

stoichiometry N [6]: 2
Substance: cc-del3 (cc-C99 21-99)

stoichiometry N [7]: 2
Substance: cc-del3 G29C

stoichiometry N [8]: 2
Substance: cc-del4 (cc-C99 22-99)

stoichiometry N [9]: 2
Substance: cc-del4 G37C

stoichiometry N [10]: 2
Substance: cc-del5 (cc-C99 23-99)

stoichiometry N [11]: 2
Substance: cc-del6 (cc-C99 24-99)

stoichiometry N [12]: 2
Substance: cc-del6 G29C

stoichiometry N [13]: 2
Substance: cc-del7 (cc-C99 25-99)

stoichiometry N [14]: 2
Substance: cc-del7 G29C

stoichiometry N [15]: 2
Substance: cc-del7 G37C

stoichiometry N [16]: 2
Substance: cc-del8 (cc-C99 26-99)

stoichiometry N [17]: 2
Substance: cc-del9 (cc-C99 27-99)

stoichiometry N [18]: 2
Substance: cc-del9 G29C
